Test results taken from patent US6890721.

B1: granzyme B-processed Yama (activated) (protein)
chain: SGISLDNSYKMDYPEMGLCIIINNKNFHKSTGMTSRSGTDVDAANLRETFRNLKYEVRNKNDLTREEIVELMRDVSKEDHSKRSSFVCVLLSHGEEGIIFGTNGPVDLKKITNFFRGDRCRSLTGKPKLFIIQACRGTELDCGIETDSGVDDDMACHKIPVEADFLYAYSTAPGYYSWRNSKDGSWFIQSLCAMLKQYADKLEFMHILTRVNRKVATEFESFSFDATFHAKKQIPCIVSMLTKELYFYH
B2: granzyme B-processed ICE LAP-6 (activated) (protein)
chain: IGSGGFGDVGALESLRGNADLAYILSMEPCGHCLIINNVNFCRESGLRTRTGSNIDCEKLRRRFSSLHFMVEVKGDLTAKKMVLALLELARQDHGALDCCVVVILSHGCQASHLQFPGAVYGTDGCPVSVEKIVNIFNGTSCPSLGGKPKLFFIQACGGEQKDHGFEVASTSPEDESPGSNPEPDATPFQEGLRTFDQLDAISSLPTPSDIFVSYSTFPGFVSWRDPKSGSWYVETLDDIFEQWAHSEDLQSLLLRVANAVSVKGIYKQMPGCFNFLRKKLFFKTSHHHHHH

Target: poly (ADP-ribose) polymerase (PARP)

| Protein | PARP cleavage (immunoblot with anti-PARP monoclonal antibody C-2-10) |
| --- | --- |
| B1 | Both granzyme B-processed Yama and ICE LAP-6 were active as determined by their ability to cleave PARP |
| B2 | Both granzyme B-processed Yama and ICE LAP-6 were active as determined by their ability to cleave PARP |
